Measured values reported in publication PMC9241661.

Target: endogenous PTEN-induced kinase 1 (PINK1) (human (endogenous in Huh7)) (UniProt Q9BXM7)
Assay: proximity ligation

Sequence of UniProt Q9BXM7 (Q9BXM7 78-581): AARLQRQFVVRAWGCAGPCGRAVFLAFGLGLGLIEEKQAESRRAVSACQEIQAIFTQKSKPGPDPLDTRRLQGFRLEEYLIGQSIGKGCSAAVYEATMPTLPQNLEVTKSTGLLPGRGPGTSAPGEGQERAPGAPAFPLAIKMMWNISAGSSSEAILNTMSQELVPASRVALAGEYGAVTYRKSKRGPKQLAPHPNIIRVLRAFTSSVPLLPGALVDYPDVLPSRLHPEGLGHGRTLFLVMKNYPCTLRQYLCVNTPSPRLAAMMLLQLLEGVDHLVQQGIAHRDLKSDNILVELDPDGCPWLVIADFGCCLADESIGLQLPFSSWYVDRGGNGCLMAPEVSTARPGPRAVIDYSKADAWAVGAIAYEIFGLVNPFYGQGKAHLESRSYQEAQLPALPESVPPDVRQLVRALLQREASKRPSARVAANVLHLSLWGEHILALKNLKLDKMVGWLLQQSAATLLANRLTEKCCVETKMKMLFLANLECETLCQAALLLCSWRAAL

JEV-NS4A made in JEV-infected Huh7 cells (from UniProt P27395 2124-2249) (natural protein)
fluorescent dots per cell (PLA) (fluorescent dots per cell): 20
